Measured values taken from the Immune Epitope Database (IEDB).

Legend:
[1] = biological target: HLA-A*02:07; experiment: IEDB peptide-MHC binding, purified MHC/competitive/radioactivity; filed as Kd, often an IC50 or EC50 that approximates it; ≥ and ≤ were set here for values at or beyond the usual limits of such assays; details: source organism: Hepatitis C virus (isolate Taiwan)
[2] = biological target: HLA-A*02:05; experiment: as above; details: source organism: Hepatitis C virus (isolate Taiwan)
[3] = biological target: HLA-B*40:02; experiment: IEDB peptide-MHC binding, cellular MHC/competitive/fluorescence; ≥ and ≤ were set here for values at or beyond the usual limits of such assays; details: source organism: Homo sapiens
[4] = biological target: HLA-B*45:06; experiment: IEDB peptide-MHC binding, purified MHC/competitive/fluorescence; filed as Kd, often an IC50 or EC50 that approximates it; ≥ and ≤ were set here for values at or beyond the usual limits of such assays; details: source organism: Yersinia pseudotuberculosis IP 31758
[5] = biological target: HLA-A*68:23; experiment: as above; details: source organism: Yersinia pseudotuberculosis IP 31758
[6] = biological target: HLA-B*83:01; experiment: as above; details: source organism: Yersinia pseudotuberculosis IP 31758
[7] = biological target: HLA-B*15:01; experiment: as above; details: source organism: Yersinia pseudotuberculosis IP 31758
[8] = biological target: HLA-A*01:01; experiment: as above; details: source organism: Yersinia pseudotuberculosis IP 31758
[9] = biological target: HLA-B*15:42; experiment: as above; details: source organism: Yersinia pseudotuberculosis IP 31758
[10] = biological target: HLA-B*58:01; experiment: as above; details: source organism: Yersinia pseudotuberculosis IP 31758
[11] = biological target: HLA-C*04:01; experiment: as above; details: source organism: Yersinia pseudotuberculosis IP 31758
[12] = biological target: HLA-A*03:01; experiment: as above; details: source organism: Yersinia pseudotuberculosis IP 31758
[13] = biological target: HLA-B*27:05; experiment: IEDB peptide-MHC binding, purified MHC/competitive/radioactivity; ≥ and ≤ were set here for values at or beyond the usual limits of such assays; details: source organism: Human papillomavirus 16
[14] = biological target: HLA-A*24:02; experiment: as above; details: source organism: Homo sapiens

Q: Which results are given for YLVAYQATV?
A: Kd [1]: 2300 nM; Kd [2]: 8.5 nM

Q: How did the IC50 [3] turn out when KEHSLQVSP was run?
A: 1900 nM

Q: Which Kd [4] does the source give for RQIRMTSTI here?
A: ≥ 5000 nM

Q: And the Kd [5]?
A: 427 nM

Q: What about the Kd [6] of the same sequence?
A: ≥ 5000 nM

Q: And the Kd [7]?
A: 163 nM

Q: What about the Kd [8] of the same sequence?
A: 3000 nM

Q: And the Kd [9]?
A: ≥ 5000 nM

Q: What about the Kd [10] of the same sequence?
A: 617 nM

Q: What about the Kd [11] of the same sequence?
A: ≥ 5000 nM

Q: What about the Kd [12] of the same sequence?
A: ≥ 20000 nM

Q: For YRHYCYSL, which IC50 [13] is on record?
A: 12 nM

Q: KYAGESFPGI was tested. Which IC50 [14] did it give?
A: 838 nM
